Measurements from paper PMC5430633, “Phosphorylation of the mitochondrial autophagy receptor Nix enhances its interaction with LC3 proteins” (Scientific Reports, 2017).

Molecular target: LC3B (UniProt Q9GZQ8)
Experiment: NMR titration of labelled LC3B
Settings: reference: unphosphorylated peptide P0; sites S34,S35

KD: stronger; reference ~100
Substance: Nix (from UniProt O60238) pS34 pS35 peptide P2
